Legend:
Assay in all cases: cell-based or functional assay
HIV-1 Env of CAP256.PI = HIV-1 Env of CAP256.PI (HIV-1)
HIV-1 Env of CAP256.SU = HIV-1 Env of CAP256.SU (HIV-1)
HIV-1 Env of 96ZM651.02 = HIV-1 Env of 96ZM651.02 (HIV-1)
HIV-1 Env of CAP210.E8 = HIV-1 Env of CAP210.E8 (HIV-1)
HIV-1 Env of CAP244.D3 = HIV-1 Env of CAP244.D3 (HIV-1)
HIV-1 Env of CAP45.G3 = HIV-1 Env of CAP45.G3 (HIV-1)
HIV-1 Env of DU156.12 = HIV-1 Env of DU156.12 (HIV-1)
HIV-1 Env of DU172.17 = HIV-1 Env of DU172.17 (HIV-1)
HIV-1 Env of DU422.01 = HIV-1 Env of DU422.01 (HIV-1)
HIV-1 Env of ZM109.4 = HIV-1 Env of ZM109.4 (HIV-1)
HIV-1 Env of ZM135.10a = HIV-1 Env of ZM135.10a (HIV-1)
HIV-1 Env of ZM197.7 = HIV-1 Env of ZM197.7 (HIV-1)
HIV-1 Env of ZM214.15 = HIV-1 Env of ZM214.15 (HIV-1)
HIV-1 Env of ZM233.6 = HIV-1 Env of ZM233.6 (HIV-1)
HIV-1 Env of ZM249.1 = HIV-1 Env of ZM249.1 (HIV-1)
HIV-1 Env of ZM53.12 = HIV-1 Env of ZM53.12 (HIV-1)
HIV-1 Env of 0260.v5.c36 = HIV-1 Env of 0260.v5.c36 (HIV-1)
HIV-1 Env of BG505.w6m = HIV-1 Env of BG505.w6m (HIV-1)
HIV-1 Env of KER2008.12 = HIV-1 Env of KER2008.12 (HIV-1)
HIV-1 Env of KER2018.11 = HIV-1 Env of KER2018.11 (HIV-1)
HIV-1 Env of MB201 = HIV-1 Env of MB201 (HIV-1)
HIV-1 Env of MB539.2B7 = HIV-1 Env of MB539.2B7 (HIV-1)
HIV-1 Env of Q168.a2 = HIV-1 Env of Q168.a2 (HIV-1)
HIV-1 Env of Q23.17 = HIV-1 Env of Q23.17 (HIV-1)
HIV-1 Env of Q259.d2.17 = HIV-1 Env of Q259.d2.17 (HIV-1)
HIV-1 Env of Q461.e2 = HIV-1 Env of Q461.e2 (HIV-1)
HIV-1 Env of Q769.d22 = HIV-1 Env of Q769.d22 (HIV-1)
HIV-1 Env of Q842.d12 = HIV-1 Env of Q842.d12 (HIV-1)
HIV-1 Env of RW020.2 = HIV-1 Env of RW020.2 (HIV-1)
HIV-1 Env of UG037.8 = HIV-1 Env of UG037.8 (HIV-1)
HIV-1 Env of 6535.3 = HIV-1 Env of 6535.3 (HIV-1)
HIV-1 Env of AC10.29 = HIV-1 Env of AC10.29 (HIV-1)
HIV-1 Env of CAAN.A2 = HIV-1 Env of CAAN.A2 (HIV-1)
HIV-1 Env of PVO.04 = HIV-1 Env of PVO.04 (HIV-1)
HIV-1 Env of QH0692.42 = HIV-1 Env of QH0692.42 (HIV-1)
HIV-1 Env of REJO.67 = HIV-1 Env of REJO.67 (HIV-1)
HIV-1 Env of RHPA.7 = HIV-1 Env of RHPA.7 (HIV-1)
HIV-1 Env of SC422.8 = HIV-1 Env of SC422.8 (HIV-1)
HIV-1 Env of THRO.18 = HIV-1 Env of THRO.18 (HIV-1)
HIV-1 Env of TRJO.58 = HIV-1 Env of TRJO.58 (HIV-1)
HIV-1 Env of TRO.11 = HIV-1 Env of TRO.11 (HIV-1)
HIV-1 Env of WITO.33 = HIV-1 Env of WITO.33 (HIV-1)
HIV-1 Env of 191821.E6.1 = HIV-1 Env of 191821.E6.1 (HIV-1)
HIV-1 Env of 3016.V5.c36 = HIV-1 Env of 3016.V5.c36 (HIV-1)
HIV-1 Env of 6405.v4.c34 = HIV-1 Env of 6405.v4.c34 (HIV-1)
HIV-1 Env of C1080.c3 = HIV-1 Env of C1080.c3 (HIV-1)
HIV-1 Env of CM244.ec1 = HIV-1 Env of CM244.ec1 (HIV-1)

B1: CAP256-VRC26.11 (antibody, V domains shown)
VH: EVQLVESGGGVVPPGKSLTLSCVASRFTFSAFGMHWVRQAPGKGLEWVASISFAGIKKYYADSVKGRFSISRDNSNTLFLQMNGLRGEDTGLYHCVKDMRELECEEWASDYYDFGKPQPCLDRRGVSGISAWWGPGTMVTVSS
VL: QSVLTQPPSVSAAPGQNVTISCSGPPSHIEKNDVSWYQRLPGMAPKMVIYESKRRPLGIPVRFSASRSGSSATLVITGLQTADEADYYCGTWDGRMNFGTGTTVSVLG
neutralization IC50 (HIV-1 Env of CAP256.PI): > 50 µg/mL | neutralization IC50 (HIV-1 Env of CAP256.SU): 0.055 µg/mL | neutralization IC50 (HIV-1 Env of 96ZM651.02): > 50 µg/mL | neutralization IC50 (HIV-1 Env of CAP210.E8): 0.073 µg/mL | neutralization IC50 (HIV-1 Env of CAP244.D3): > 50 µg/mL | neutralization IC50 (HIV-1 Env of CAP45.G3): > 50 µg/mL | neutralization IC50 (HIV-1 Env of DU156.12): > 50 µg/mL | neutralization IC50 (HIV-1 Env of DU172.17): > 50 µg/mL | neutralization IC50 (HIV-1 Env of DU422.01): 11.5 µg/mL | neutralization IC50 (HIV-1 Env of ZM109.4): > 50 µg/mL | neutralization IC50 (HIV-1 Env of ZM135.10a): > 50 µg/mL | neutralization IC50 (HIV-1 Env of ZM197.7): 0.055 µg/mL | neutralization IC50 (HIV-1 Env of ZM214.15): > 50 µg/mL | neutralization IC50 (HIV-1 Env of ZM233.6): 0.322 µg/mL | neutralization IC50 (HIV-1 Env of ZM249.1): 34.5 µg/mL | neutralization IC50 (HIV-1 Env of ZM53.12): 0.081 µg/mL | neutralization IC50 (HIV-1 Env of 0260.v5.c36): > 50 µg/mL | neutralization IC50 (HIV-1 Env of BG505.w6m): 4.2 µg/mL | neutralization IC50 (HIV-1 Env of KER2008.12): > 50 µg/mL | neutralization IC50 (HIV-1 Env of KER2018.11): 1.76 µg/mL | neutralization IC50 (HIV-1 Env of MB201): > 50 µg/mL | neutralization IC50 (HIV-1 Env of MB539.2B7): > 50 µg/mL | neutralization IC50 (HIV-1 Env of Q168.a2): > 50 µg/mL | neutralization IC50 (HIV-1 Env of Q23.17): > 50 µg/mL | neutralization IC50 (HIV-1 Env of Q259.d2.17): > 50 µg/mL | neutralization IC50 (HIV-1 Env of Q461.e2): > 50 µg/mL | neutralization IC50 (HIV-1 Env of Q769.d22): > 50 µg/mL | neutralization IC50 (HIV-1 Env of Q842.d12): > 50 µg/mL | neutralization IC50 (HIV-1 Env of RW020.2): > 50 µg/mL | neutralization IC50 (HIV-1 Env of UG037.8): > 50 µg/mL | neutralization IC50 (HIV-1 Env of 6535.3): > 50 µg/mL | neutralization IC50 (HIV-1 Env of AC10.29): > 50 µg/mL | neutralization IC50 (HIV-1 Env of CAAN.A2): > 50 µg/mL | neutralization IC50 (HIV-1 Env of PVO.04): 10.8 µg/mL | neutralization IC50 (HIV-1 Env of QH0692.42): > 50 µg/mL | neutralization IC50 (HIV-1 Env of REJO.67): > 50 µg/mL | neutralization IC50 (HIV-1 Env of RHPA.7): > 50 µg/mL | neutralization IC50 (HIV-1 Env of SC422.8): > 50 µg/mL | neutralization IC50 (HIV-1 Env of THRO.18): > 50 µg/mL | neutralization IC50 (HIV-1 Env of TRJO.58): > 50 µg/mL | neutralization IC50 (HIV-1 Env of TRO.11): > 50 µg/mL | neutralization IC50 (HIV-1 Env of WITO.33): > 50 µg/mL | neutralization IC50 (HIV-1 Env of 191821.E6.1): > 50 µg/mL | neutralization IC50 (HIV-1 Env of 3016.V5.c36): 0.3 µg/mL | neutralization IC50 (HIV-1 Env of 6405.v4.c34): > 50 µg/mL | neutralization IC50 (HIV-1 Env of C1080.c3): 0.018 µg/mL | neutralization IC50 (HIV-1 Env of CM244.ec1): 26.7 µg/mL

Source: patent US20200199204A1 (UNITED STATES OF AMERICA AS REPRESENTED BY THE SECRETARY …, published 2020)
